Measured values published in the supplement of paper PMC12042874.
± gives the uncertainty stated by the source.

assay: amyloid nucleation score (Sup35N fusion, yeast selection) (log enrichment); library NNK1; higher = more nucleation; inactive = no reads after selection
Outline: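 Growth for 7 days at 30°C on medium lacking adenine and uracil followed a 24-hour induction with 100 μM copper sulfate of psi-negative yeast expressing peptides of 20 random codons fused to Sup35N. Input and output plasmid inserts were sequenced with Illumina, and sequences with under 100 input reads were excluded. Nucleation score is the DiMSum log enrichment of output over input reads, centred on the mode score of non-aggregating sequences.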

Substance | amyloid nucleation score
KMRCDGLEQRLRSQSDLLAP | 0.374 ± 0.45
KMVLF | 0.927 ± 0.49
KNGRWAWFTSRAHCFGYNFT | -1.14 ± 0.82
KNPRGENIFLPCLRMGKHLL | -0.776 ± 1.9
KNSLTTKVLLCTLAATL | 0.603 ± 0.73
KNTCKQMV | 0.242 ± 0.57
KNVSLRYILAYCRHYKLTHG | 0.19 ± 1.2
KPEFVNWIC | 0.083 ± 0.32
KPKVVNMVEGLRGFCGLLDL | -0.602 ± 0.94
KPYIFYFINVYCEA | 5.917 ± 0.056
KQLDINRLTSDMS | inactive
KQNSKLFLIFIGNALGQVTV | 5.09 ± 0.064
KRCFVLWLHRLWVGVNVFAD | 0.237 ± 0.25
KRCSFWQTRTVELSFGHPVL | -1.23 ± 2.7
KRCSYRS | 0.07 ± 0.6
KRLHRGCWEVGSRGSLKLVN | -1.14 ± 1.6
KRLWLKLSTVE | 0.32 ± 0.32
KRMDKPWTPGYTAMHWVDNM | 0.612 ± 0.52
KRNRVAIILWICNNYYEWNN | -0.747 ± 0.39
KRPSSFVEFFMLWRSKAR | 0.947 ± 0.43
KRSTVRHYYRARCFITVAMV | -0.365 ± 0.45
KRVANDWEYGFGYNPTVVGR | 0.295 ± 0.46
KSAANTINIRPENETVPRFQ | 0.556 ± 0.59
KSESDL | inactive

Substance | amyloid nucleation score
KSFSIYTVIVV | 1.2 ± 0.26
KSMHEVWWLLQSEGERDL | 0.712 ± 0.49
KSPRVSVGTASVSWRKKFTW | 0.2 ± 0.74
KSQGEVFRVAREGNFIIEES | -1.07 ± 1.2
KSQTRDIFRGDVMC | -0.991 ± 0.71
KSQVVMRDVEPATNIV | -0.153 ± 0.69
KSSYLFMTSWPYWVRGMSYA | 0.01 ± 0.46
KSVAIAPYDGCVMFSKQTWG | -0.025 ± 0.63
KSYLLGDGTFNSCTW | 0.107 ± 0.69
KTAPGLKCIQIEVWQY | 0.035 ± 0.35
KTFLHSTSYNNKKRWMSLRQ | 0.485 ± 0.66
KTLDLHISFPQDKLFR | -0.382 ± 0.45
KTRHMREDGQCVYKHEMERM | 0.577 ± 0.19
KTWNVCALARGWECEAINVW | -0.264 ± 0.3
KVAVN | 0.453 ± 0.42
KVCVLLSSCIYDNLHVR | 0.402 ± 1.4
KVFGTRPVRYETCRFLRLRS | -0.013 ± 0.34
KVFINVYIKRQRNKCRRSNR | 5.899 ± 0.054
KVKNRAFWPHMSLTYAMVPP | 0.333 ± 0.39
KVLFLTCYTTPSLNNLVFRC | -0.069 ± 0.28
KVLTRPG | -0.213 ± 0.64
KVTMRWV | 2.21 ± 0.27
KVVTGLIYFWCIWCFGTLRV | 0.431 ± 0.9
KWDLRPYFFLMVLEQGCSMW | -0.506 ± 1

Substance | amyloid nucleation score
KWEYCCLFMLAHVEDHLKGF | 0.59 ± 0.34
KWLPMKMKLWFDNSYGGQWF | -0.265 ± 1.2
KWSSRCQWDWTLLGTCLAL | 0.29 ± 0.3
KWSVSV | -0.32 ± 1.3
KWVKEALIA | -0.463 ± 0.73
KWYNTPNSDWSV | -0.983 ± 1.7
KYCVN | -0.403 ± 0.38
KYENGCTDTWGMTVASPLIK | -0.515 ± 1
KYVCGLTDTVIRGMLKVIRA | 0.559 ± 0.27
LACTYLCWALC | -1.32 ± 0.86
LAEYHYGSMFSLNSTYYNLS | 5.91 ± 0.069
LAFMYVGKYARRGLTIYNLI | -0.335 ± 0.54
LAITDKCSRALSLLSCPDF | 0.265 ± 0.63
LALFIDWQ | 1.53 ± 0.53
LAQSGIDIYLRKGMDARKMR | -0.516 ± 0.32
LARCRWLVKRVCDGNWCCML | 0.569 ± 0.48
LAVFSNVLLYVEDMSALIRG | 0.129 ± 0.2
LAYGWKFDNSCLL | 1.29 ± 0.68
LAYVHTVKVDGPWKHMNVWY | 1.22 ± 0.54
LCAARNFSL | -0.277 ± 0.5
LCCFKSFVSENMN | 6.447 ± 0.05
LCFDVSFRYYGMGYIL | 0.165 ± 0.23
LCFGGRSWSCFVKVKHLFAC | 1.68 ± 0.51
LCFSGD | -0.352 ± 0.99
